# Laboratory results taken from patent publication US20230330253A1.
# Biological target: human claudin 18.2 (CLDN18.2) (human)
# Assay: cell-based or functional assay
substance,measurement,value
IgG (Control) (antibody),"Fluorescence, pHAb internalization on MKN45-CLDN18.2 cells, 20 nM antibody, normalized by DAR",854
same,"Fluorescence, pHAb internalization on MKN45-CLDN18.2 cells, 100 nM antibody, normalized by DAR",2700
